Laboratory results as given in patent US20190309069A1 (SHANGHAI HENGRUI PHARMACEUTICAL, published 2019).

How the values were obtained:
[1] = target: T1, human CTLA4 (Beijing Sino Biological Inc.) (human, UniProt P16410 36-162, limits assumed); experiment: ELISA, protein coated at 1 µg/ml
T1 construct: Bought reagent
T1 sequence (looked up): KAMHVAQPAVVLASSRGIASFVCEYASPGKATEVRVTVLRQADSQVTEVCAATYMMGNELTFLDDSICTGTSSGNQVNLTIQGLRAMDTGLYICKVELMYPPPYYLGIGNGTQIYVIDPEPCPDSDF
Protocol: (§1) To detect the specific binding activity of PD-1 antibody to other proteins of the PD-1 family, human CTLA4 and human CD28 were used for binding assays. Meanwhile, the PD-1 of mice was also used for binding assays so as to determine the diversity of PD-1 antibody for different species other than human/monkey.
(§2) Selectively binding proteins: human PD-1, human ICOS, human CTLA4, human CD28 and mouse PD-1, (Beijing Sino Biological Inc.), were respectively diluted to 1 μg/ml with PBS buffer, pipetted into a 96-well plate at 100 μl/well and standed for 16 h-20 h at 4° C. The 96-well plate was washed once with PBST (PH7.4 PBS, containing 0.05% tweeen20) after PBS buffer was removed, then the plate was incubated and blocked for 1 h at room temperature with 120 μl/well PBST/1% milk. After removal of the blocking solution, the plate was washed with PBST buffer for 3 times, followed by addition of the test PD-1 antibody, and incubated for 1.5 h at room temperature. After removal of the reaction system, the plate was washed for 3 times with PBST, followed by addition of 100 μl/well HRP-labeled anti-murine secondary antibody (The Jackson Laboratory) which was diluted by PBST/1% milk, and incubated for 1 h at room temperature. The plate was washed for 3 times with PBST, followed by addition of 100 μl/well TMB, and incubated for 5-10 min at room temperature. Then the reaction was terminated with addition of 100 μl/well 1M H₂SO₄. The absorbance value at 450 nm was read on the NOVOStar microplate reader.

[2] = target: T2, human CD28 (Beijing Sino Biological Inc.) (human, UniProt P10747 19-152); experiment: ELISA, protein coated at 1 µg/ml
T2 construct: Bought reagent
Protocol: as §1, §2

[3] = target: T3, human ICOS/Fc (Beijing Sino Biological Inc.) (human, UniProt Q9Y6W8 21-141, limits assumed); experiment: ELISA, protein coated at 1 µg/ml
T3 construct: Bought reagent; not shown: Fc part
T3 sequence (looked up): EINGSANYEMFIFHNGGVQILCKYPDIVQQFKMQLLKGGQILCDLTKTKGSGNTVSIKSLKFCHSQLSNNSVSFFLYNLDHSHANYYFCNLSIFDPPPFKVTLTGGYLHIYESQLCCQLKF
Protocol: as §1, §2

[4] = target: T4, mouse PD1-Fc (Beijing Sino Biological Inc.) (mouse, UniProt Q02242 25-167, limits assumed); experiment: ELISA, protein coated at 1 µg/ml
T4 construct: Bought reagent; also called murine PD-1; not shown: Fc part
T4 sequence (looked up): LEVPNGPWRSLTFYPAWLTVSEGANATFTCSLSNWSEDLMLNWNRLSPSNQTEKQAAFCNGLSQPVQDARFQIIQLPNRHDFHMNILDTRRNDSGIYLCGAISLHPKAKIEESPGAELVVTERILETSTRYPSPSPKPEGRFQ
Protocol: as §1, §2

[5] = target: T5, recombinant PD-1 extracellular domain Fc fusion protein (PD-1 Fc) (human, biotin label (sites not given) in the ELISA binding assay; unlabelled when coated in the ligand blocking assay); experiment: ELISA, biotinylated PD-1 Fc captured on avidin
T5 construct: also called human PD-1Fc; human PD-1
Protocol: (§3) The PD-1 antibody blocks signaling pathway of PD-1 and its ligand by binding to PD-1 extracellular domain. In vitro ELISA assay is used to detect the binding property of the PD-1 antibody. Biotinylated PD-1 extracellular domain FC fusion protein (PD-1 FC) is coated onto 96-well plates by binding to neutralization avidin. Signal intensity after the addition of the antibody is used to determine the binding property of the antibody and PD-1.
Neutralization avidin (binding to biotin) was diluted to 1 μl/ml with PBS buffer, pipetted into a 96-well plate with at 100 μl/well and standed for 16 h-20 h at 4° C. The 96-well plate was washed once with PBST (PH7.4 PBS, containing 0.05% tweeen20) after PBS buffer was removed, then the plate was incubated and blocked for 1 h at room temperature with addition of 120 μl/well PBST/1% milk. After removal of the blocking solution, the plate was washed with PBST buffer, followed by addition of 1 μg/ml biotin-labeled PD1-FC which was diluted by PBST/1% milk, and incubated for 1 h at room temperature. After removal of the blocking solution, the plate was washed with PBST buffer for 3 times, followed by addition of the test PD-1 antibody which was diluted to a suitable concentration by PBST/1% milk, and incubated for 1.5 h at room temperature. […] The absorbance value at 450 nm was read on NOVOStar microplate reader; the ELISA binding EC₅₀ value was calculated.

[6] = target: T6, PD-1 His protein (Beijing Sino Biological Inc.) (UniProt Q15116 25-167, limits assumed); experiment: Biacore SPR, antibody coupled to CM5 chip, PD-1 His as analyte, 1:1 model
T6 construct: Bought reagent, analyte in the Biacore assay; not shown: His tag
Protocol: (§4) According to the instruction of a kit provided by Biacore, the test PD-1 antibody of the present invention was covalently linked to CM5 (GE) chip using a standard amino coupling method. Then a series of gradient concentrations of PD-1 His protein (Beijing Sino Biological Inc.), which were diluted in the same buffer, were loaded into each cycle successively. After that, the samples were regenerated with regenerated reagent in the kit. The antigen-antibody binding kinetics was tracked for 3 minutes and the dissociation kinetics was tracked for 10 minutes. The data obtained was analyzed by GE's BIAevaluation software using 1:1 (Langmuir) binding model.

[7] = target: T7, cynomolgus PD-1Fc (cynomolgus, UniProt B0LAJ3 25-170, Probably biotinylated for capture on avidin, as the human PD-1 FC was in this ELISA. Fused to an Fc that is not given.); experiment: ELISA, cyno PD-1Fc
T7 construct: Source and construct of the cynomolgus PD-1 Fc fusion are not described; also called cyno PD-1; not shown: Fc part of the cynomolgus PD-1Fc fusion, and any linker

[8] = target: T8, human PD1-FC (Beijing Sino Biological Inc.) (human, UniProt Q15116 25-167, limits assumed); experiment: selectivity ELISA, protein coated at 1 µg/ml
T8 construct: not shown: Fc part
Protocol: as §1, §2

[9] = target: T1, human CTLA4 (Beijing Sino Biological …); experiment: selectivity ELISA, protein coated at 1 µg/ml
Protocol: as §1, §2

[10] = target: T2, human CD28 (Beijing Sino Biological …); experiment: selectivity ELISA, protein coated at 1 µg/ml
Protocol: as §1, §2

[11] = target: T3, human ICOS/Fc (Beijing Sino Biological …); experiment: selectivity ELISA, protein coated at 1 µg/ml
Protocol: as §1, §2

[12] = target: T4, mouse PD1-Fc (Beijing Sino Biological …); experiment: selectivity ELISA, protein coated at 1 µg/ml
Protocol: as §1, §2

[13] = target: T5, recombinant PD-1 extracellular domain …; experiment: ligand binding blocking ELISA: PD-1-FC coated, competitor biotin-labeled PD-L1
Protocol: (§5) In this experiment, a 96-well plate was coated with a PD-1 protein with the extracellular domain fused with FC (PD-1-FC), and incubated with the test PD-1 antibody; later biotin-labeled PD-L1 was added for incubation. After washing the plate, the binding amount of biotin-labeled PD-L1 was detected; the blocking IC₅₀ value of PD-1 antibody for ligand PD-L1 binding was calculated.
PD-1-FC was diluted to 1 μg/ml with PH 9.6 CB buffer (1.59 g Na₂CO₃ and 2.93 g NaHCO₃ were dissolved in 1 L of distilled water), pipetted into a 96-well plate at 100 μl/well and standed for 16 h-20 h at 4° C. The 96-well plate was washed once with PBST (PH7.4 PBS, containing 0.05% tweeen20) after PBS buffer was removed, then the plate was incubated and blocked for 1 h at room temperature with 120 μl/well PBST/1% milk. After removal of the blocking solution, the plate was washed with PBST buffer once, followed by addition of 90 μl of test PD-1 antibody which was diluted to a suitable concentration with sample diluents (PH7.4 PBS containing 5% BSA, 0.05% Tween20), and incubated for 1 h at 4° C. […] The absorbance value at 450 nm was read on the NOVOStar microplate reader; the blocking IC₅₀ value of PD-1 for ligand PD-L1 binding was calculated.

[14] = target: T5, recombinant PD-1 extracellular domain …; experiment: ligand binding blocking ELISA as in Example 2, competitor biotin-labeled PD-L1
Protocol: as §5
PD-1-FC was diluted to 1 μg/ml with PH 9.6 CB buffer (1.59 g Na₂CO₃ and 2.93 g NaHCO₃ were dissolved in 1 L of distilled water), pipetted into a 96-well plate at 100 μl/well and standed for 16 h-20 h at 4° C. The 96-well plate was washed once with PBST (PH7.4 PBS, containing 0.05% tweeen20) after PBS buffer was removed, then the plate was incubated and blocked for 1 h at room temperature with 120 μl/well PBST/1% milk. After removal of the blocking solution, the plate was washed with PBST buffer once, followed by addition of 90 μl of test PD-1 antibody which was diluted to a suitable concentration with sample diluents (PH7.4 PBS containing 5% BSA, 0.05% Tween20), and incubated for 1 h at 4° C. Then 10× concentrations of biotin-labeled PD-L1 (Beijing Sino Biological Inc.) (10 μg/ml) was added to the plate at 10 μl/well, oscillated and mixed by an oscillator, and incubated at 37° C. for 1 h. After removal of the reaction system, the plate was washed for 6 times with PBST buffer, followed by addition of 100 ul/well Streptavidin-Peroxidase Polymer which was diluted by PBST at a ratio of 1:400, and incubated under oscillation for 50 min at room temperature. After being washed with PBST for 6 times, the plate was added with 100 μl/well TMB, and incubated for 5-10 min at room temperature. Then the reaction was terminated with addition of 100 μl/well 1M H₂SO₄. The absorbance value at 450 nm was read on the NOVOStar microplate reader; the blocking IC₅₀ value of PD-1 for ligand PD-L1 binding was calculated.
(§6) Humanized antibodies were subjected to ELISA binding assay (method is the same as that of Example 2), ligand binding blocking assay (method is the same as that of Example 2), and affinity kinetics experiment (method is the same as that of Example 5) in vitro.

[15] = target: T6, PD-1 His protein (Beijing Sino …); experiment: Biacore SPR as in Example 5, PD-1 His as analyte
Protocol: as §4, §6

[16] = target: T5, recombinant PD-1 extracellular domain …; experiment: ELISA as in Example 2, biotinylated PD-1 Fc captured on avidin
Protocol: as §3
Neutralization avidin (binding to biotin) was diluted to 1 μl/ml with PBS buffer, pipetted into a 96-well plate with at 100 μl/well and standed for 16 h-20 h at 4° C. The 96-well plate was washed once with PBST (PH7.4 PBS, containing 0.05% tweeen20) after PBS buffer was removed, then the plate was incubated and blocked for 1 h at room temperature with addition of 120 μl/well PBST/1% milk. After removal of the blocking solution, the plate was washed with PBST buffer, followed by addition of 1 μg/ml biotin-labeled PD1-FC which was diluted by PBST/1% milk, and incubated for 1 h at room temperature. After removal of the blocking solution, the plate was washed with PBST buffer for 3 times, followed by addition of the test PD-1 antibody which was diluted to a suitable concentration by PBST/1% milk, and incubated for 1.5 h at room temperature. After removal of reaction system, the plate was washed for 3 times with PBST buffer, followed by addition of 100 μl/well HRP-labeled anti-murine secondary antibody (The Jackson Laboratory) which was diluted by PBST/1% milk, and incubated for 1 h at room temperature. After being washed with PBST for three times, the plate was added with 100 μl/well TMB, and incubated for 5-10 min at room temperature. Then the reaction was terminated with addition of 100μ/well 1M H₂SO₄. The absorbance value at 450 nm was read on NOVOStar microplate reader; the ELISA binding EC₅₀ value was calculated.
as §6

B1: murine monoclonal antibody mAb005 (antibody, V domains shown)
VH: EVMLVESGGGLVKPGGSLKLSCAASGFTFSSYMMSWVRQTPEKRLEWVATISGGGANTYYPDSVKGRFTISRDNAKNTLYLQMSSLRSEDTALYYCARQLYYFDYWGQGTTLTVSS
VL: DIQMTQSPASQSASLGEGVTITCLASQTIGTWLTWYQQKPGKSPQLLIYTATSLADGVPSRFSGSGSGTKFSFKISSLQAEDFVTYYCQQVYSIPWTFGGGTKLEIK
notes: Murine monoclonal antibody from a hybridoma; also called PD-1 antibody mAb005
binding result [1]: no binding | binding result [2]: no binding | binding result [3]: no binding | binding result [4]: no binding | EC50 [5]: 0.25 nM | Kd [6]: 3.57 nM | koff [6]: 0.000377 s⁻¹ | kon [6]: 106000 M⁻¹ s⁻¹ | EC50 [7]: 0.27 nM | absorbance at 450 nm [8]: 2.64 | absorbance at 450 nm [9]: 0.17 | absorbance at 450 nm [10]: 0.12 | absorbance at 450 nm [11]: 0.15 | absorbance at 450 nm [12]: 0.07 | IC50 [13]: 1.13 nM

B2: humanized antibody H005-1 (antibody, human IgG4 S228P, kappa, F234A L235A, V domains shown)
VH: EVQLVESGGGLVQPGGSLRLSCAASGFTFSSYMMSWVRQAPGKGLEWVATISGGGANTYYPDSVKGRFTISRDNAKNSLYLQMNSLRAEDTAVYYCARQLYYFDYWGQGTTVTVSS
VL: DIQMTQSPSSLSASVGDRVTITCLASQTIGTWLTWYQQKPGKAPKLLIYTATSLADGVPSRFSGSGSGTDFTLTISSLQPEDFATYYCQQVYSIPWTFGGGTKVEIKR
notes: CDR graft of mAb005 on IgHV3-7/JH6 and IGKV1-39/JK4, IgG4 constant region; expressed in HEK293 cells; also called PD-1 antibody H005-1
IC50 [14]: 1.27 nM | Kd [15]: 2.79 nM | EC50 [16]: 0.11 nM
